The values below come from US20240005439A1, “IMAGING METHODS AND RADIOTRACERS FOR USE THEREIN” (VESTLANDETS INNOVASJONSSELSKAP AS (VIS), priority 2020, published 2024).

A short description of one data set: Iohexol plasma clearance. The data set is classed as in vivo, rats. Conditions: for GFR relative to the initial control value (iohexol): CKD rats; for clearance: rat, plasma, 105 mg.
The nature of data set [1]: Iohexol plasma clearance in mice. The data set is classed as in vivo. Conditions: mouse, intravenous, 100 μl (iohexol diluted 1:10 from stock solution), male C3H mice, read-out: GFR with the iohexol plasma clearance method. As to the method: Male mice (C3H, n=8) anesthetized with isoflurane were injected i.v. in the tail vein with 100 μl iohexol (diluted 1:10 from stock solution). 15 minutes following the injection, the mice were re-anesthetized with isoflurane and were kept anesthetized until termination of the experiments. Blood samples (each 20 μl) were collected from the retro-orbital space at 15, 30, 45 and 60 minutes.
Iohexol clearance was calculated by a bi-exponential method as: GFR=Dose/AUC, where AUC is the area under the plasma iohexol concentration curve. In addition, the slope of the second mono-exponential phase of the plasma disappearance curve for iohexol (k) was calculated using blood samples taken at 60, 90, 120, and 180 minutes.
For measurement of iohexol, all blood samples were centrifuged at 2000 g for collection of plasma. Plasma samples (5 μl from rats and 1 μl from mice) were immediately diluted 7.5-60 times by 0.1% (v/v) trifluoroacetic acid (TFA) in water and their iohexol concentrations were measured by two-dimensional HPLC using the Thermo Scientific™ Dionex™ UltiMate™ […] Rapid Separation series hardware, column switching and Chromeleon Chromatography Data System software (7.2.10). […] Both columns were washed separately by 99.9% acetonitrile/0.1% TFA, re-equilibrated in 0.1% TFA in water and ready for the next sample 9 minutes after injection. […]

Data set [2] can be described thus: Stability and plasma protein binding of labelled proteins by SEC-HPLC. The data set is classed as physicochemical. Conditions: high resolution size exclusion chromatography. How it is done: The stability and plasma protein binding of stock solutions of ^18F-cytochrome C and ^124I-cystatin C was evaluated by high resolution size exclusion chromatography (SEC-HPLC) after 12 h storage in room temperature and after 8 days of storage in fridge (4° C.).
On the technique in general: In gel filtration, larger molecules generally elute earlier.

On the set-up of data set [3]: species or system rats. As to conditions: rat, in vivo. As to the method:
(§1) All animals were scanned using the same scanner, anesthesia procedure, monitoring and positioning as mentioned above. First, CT semicircular scans (same settings as contrast CT) were acquired from the lower edge of the ribs to the pelvis for anatomical reference and attenuation correction for PET. Following CT, a 10-minute dynamic PET acquisition was initiated, which was started 30 seconds before the bolus injection (30 sec duration of the injection) of 5-10 MBq ^18F-cytochrome C diluted in 1 ml saline through a tail vein catheter. Images were reconstructed in 1-5 coincidence mode using the Tera-Tomo 3D reconstruction algorithm (Mediso) with 4 iterations/6 subsets, corrected for attenuation and scatter with a resulting 0.4 mm^3 voxel size. The PET acquisition was reconstructed to 15 timeframes: […]; 6×30 s; 3×120 s.
To investigate the initial distribution, uptake and excretion of ^18F-cytochrome C in the body, two rats were dynamically scanned by PET-CT for 30 minutes. […] The ^18F signal peaked over the large abdominal vessels in less than 1 minute and appeared in the bladder in less than 10 minutes. After 10 minutes, the bladder signal increased exponentially and the kidney signal leveled out reflecting urinary excretion of ^18F-cytochrome C breakdown products.

Data set [4] can be described thus: PET GFR scanning (kidney activity divided by AUC). The data set is classed as in vivo, rats. Conditions: for GFR relative to the initial control value (PET-CT): CKD rats. How it is done: as §1
SD male rats (n=8) were fed by 0.35% adenine in the chow (Altromin, Denmark) for 7 weeks to induce chronic kidney disease (CKD). PET-CT GFR scanning was performed at baseline and at 3, 5 and 7 weeks after initiation of adenine feeding. Iohexol clearance (described below) was performed at baseline and after 3, 5 and 7 weeks of adenine feeding. Blood samples were taken every second week for creatinine measurements.
All images were analyzed using Inter View Fusion version 3.01.021.0000 (Mediso), and CT and PET images were automatically aligned. The sphere selection volume of interest (VOI) function was used to collect the signal from the large abdominal vessels close to the distal aorta branch level in the frame with the highest intensity and copied to all other frames to obtain the ^18F-cytochrome C intensity as a function of time (input function).
In more detail, 6 input function candidates were generated from 6 sphere-VOIs with diameters of 5, 6, 7, 8, 9, and 10 mm centered on the maximal signal intensity from the vessels and used for regression analyses to obtain an unbiased estimate of the area under the input function (AUC). […] An unbiased AUC was obtained from the regression analysis using a VOI-volume (x in regression equation) corresponding to a blood vessel diameter of 2.41 mm as measured by the ruler function with the software on the contrast CT images (n=8 images from 8 rats, SD=0.02). This approach was verified by ex vivo blood and kidney samples in a separate set of rats (n=8), i.e. the ^18F-clearances obtained by ex vivo sampling were not different from those obtained by the PET images. The same approach was adopted for mice using sphere diameters of 1, 1.5, 2, 2.5, 3, 3.5, and 4 mm and abdominal vessel diameter of 0.9 mm (n=8 mice, SD=0.07). The auto segmentation tool was used to collect the ^18F-signals from both kidneys at 5.5 minutes using thresholds that gave VOI-volumes that matched the kidney volumes as measured by contrast CT. The total kidney ^18F-activity was calculated as the mean VOI-intensity multiplied with the kidney cortex volume (total kidney volume from CT×2/3) and divided by AUC to obtain GFR.

Another data set can be described thus: Mouse PET-CT GFR. As to conditions: male C3H mice. The data set is classed as in vivo. As to the method: All animals were scanned using the same scanner, anesthesia procedure, monitoring and positioning as mentioned above. First, CT semicircular scans (same settings as contrast CT) were acquired from the lower edge of the ribs to the pelvis for anatomical reference and attenuation correction for PET. Following CT, a 10-minute dynamic PET acquisition was initiated, which was started 30 seconds before the bolus injection (30 sec duration of the injection) of 5-10 MBq ^18F-cytochrome C diluted in 1 ml saline through a tail vein catheter. […]
In more detail, 6 input function candidates were generated from 6 sphere-VOIs with diameters of 5, 6, 7, 8, 9, and 10 mm centered on the maximal signal intensity from the vessels and used for regression analyses to obtain an unbiased estimate of the area under the input function (AUC). […] An unbiased AUC was obtained from the regression analysis using a VOI-volume (x in regression equation) corresponding to a blood vessel diameter of 2.41 mm as measured by the ruler function with the software on the contrast CT images (n=8 images from 8 rats, SD=0.02). […] The auto segmentation tool was used to collect the ^18F-signals from both kidneys at 5.5 minutes using thresholds that gave VOI-volumes that matched the kidney volumes as measured by contrast CT. […]

Take `CC(=O)N(CC(O)CO)c1c(I)c(C(=O)NCC(O)CO)c(I)c(C(=O)NCC(O)CO)c1I` (stereo not shown) [Iohexol]: the “GFR relative to the initial control value (iohexol)” value in “Iohexol plasma clearance” (3 weeks of adenine) is recorded as −50%; in “Iohexol plasma clearance” (7 weeks of adenine) it was −20%. Besides, the “GFR Iohexol/100 g” value in “Iohexol plasma clearance” (SD female rats (n = 6)) is 0.73 ± 0.07 ml/min · 100 g; in “Iohexol plasma clearance” (SD male rats (n = 8)) it was 0.59 ± 0.06 ml/min · 100 g; in “Iohexol plasma clearance” (Wistar male rats (n = 6)), 0.64 ± 0.01 ml/min · 100 g. Also, the results for the “k, plasma disappearance rate constant of iohexol for the second mono-exponential phase” value in “Iohexol plasma clearance” (SD female rats (n = 6)), in “Iohexol plasma clearance” (SD male rats (n = 8)) and in “Iohexol plasma clearance” (Wistar male rats (n = 6)) were 0.026 ± 0.002 min⁻¹, 0.025 ± 0.002 min⁻¹ and 0.027 ± 0.002 min⁻¹, respectively. The “iohexol-based GFR” value in “Iohexol plasma clearance” (SD females (n=6), FIG. 5D) was 2.3 ± 0.3 mL/min. Further, the clearance in “Iohexol plasma clearance” (intravenous, SD male rats, baseline before 0.35% adenine (CKD model), read-out: Mean GFR estimated from iohexol clearance) was 2.89 ± 0.14 mL/min; in the data set “Iohexol plasma clearance” (iv, SD female rats (n = 6), read-out: GFR Iohexol (iohexol clearance)), 2.25 ± 0.26 mL/min; in the data set “Iohexol plasma clearance” (iv, SD male rats (n = 8), read-out: GFR Iohexol (iohexol clearance)), 2.89 ± 0.12 mL/min; in the data set “Iohexol plasma clearance” (iv, Wistar male rats (n = 6), read-out: GFR Iohexol (iohexol clearance)), 2.84 ± 0.34 mL/min; in data set [1], 0.51 ± 0.13 mL/min.
With “^18F-cytochrome C: Cytochrome C from bovine heart labelled with [^18F]F-Py-TFP, comprising a 6-[^18F]fluoropyridine-3-carboxy group”, the “Dimer formation / protein binding (size exclusion HPLC elution pattern)” value (shortened to “Dimer formation / protein binding”) in data set [2] is on record as “no sign of dimer formation or protein binding”. Besides, the “Involvement of other organs such as liver and spleen” value in data set [3] is “negligible involvement of other organs”. Also, the “Time of ^18F signal appearance in the bladder” value in data set [3] (iv) is “less than 10 minutes”. Besides, in data set [3] (iv), the “Time of ^18F signal peak over the large abdominal vessels” value is on record as “less than 1 minute”. The entries for the “GFR relative to the initial control value (PET-CT)” value in data set [4] (3 weeks of adenine) and in data set [4] (7 weeks of adenine) were −50% and −20%, respectively. Further, the results for the “GFR (PET)” value in data set [4] (SD female rats (n = 6)), in data set [4] (SD male rats (n = 8)) and in data set [4] (Wistar male rats (n = 6)) were 1.88 ± 0.16 mL/min, 3.20 ± 0.12 mL/min and 3.01 ± 0.35 mL/min, respectively. Further, the “GFR/100 g (PET)” value in data set [4] (SD female rats (n = 6)) is given as 0.61 ± 0.06 ml/min · 100 g rat; in data set [4] (SD male rats (n = 8)), 0.66 ± 0.07 ml/min · 100 g rat; in data set [4] (Wistar male rats (n = 6)) it was 0.68 ± 0.11 ml/min · 100 g rat. Moreover, the “PET-CT GFR” value in data set [4] (SD females (n=6), FIG. 5D) was 2.3 ± 0.3 mL/min. Also, the “Mean GFR, PET-CT value” in data set [4] (SD male rats, baseline before 0.35% adenine (CKD model)) came out at 2.94 ± 0.12 mL/min. In addition, the “GFR measured with PET” value in the data set “Mouse PET-CT GFR” stood at 0.55 ± 0.12 mL/min.

B1: unlabelled cystatin C: Human cystatin C purchased from Nordic BioSite, unlabelled (protein, UniProt P01034 27-146, looked up)
Cystatin-C: SSPGKPPRLVGGPMDASVEEEGVRRALDFAVGEYNKASNDMYHSRALQVVRARKQIVAGVNYFLDVELGRTTCTKTQPNLDNCPFHDQPHLKRKAFCSFQIYAVPWQGTMTLSKSTCQDA
In the case of B1, the “Dimer formation / protein binding” value in data set [2] is recorded as “appeared mainly as dimers”.

B2: ^124I-labelled cystatin C: Human cystatin C (Nordic BioSite) labelled with ^124I for PET by Iodo-Gen (protein, UniProt P01034 27-146, looked up)
Cystatin-C: SSPGKPPRLVGGPMDASVEEEGVRRALDFAVGEYNKASNDMYHSRALQVVRARKQIVAGVNYFLDVELGRTTCTKTQPNLDNCPFHDQPHLKRKAFCSFQIYAVPWQGTMTLSKSTCQDA
modifications: 124I label
notes: Human cystatin C (Nordic BioSite) labelled with ^124I for PET by Iodo-Gen
Regarding B2, the “Dimer formation / protein binding” value in data set [2] is given as “appeared mainly as dimers”.

A word on the clearance: it is a measure of how efficiently the substance is removed, as volume per time.
